T1: laminin γ1 short arm fragment (γ1LN-LEa1-4) (Mus musculus, UniProt P02468 34-492)
T1 chain: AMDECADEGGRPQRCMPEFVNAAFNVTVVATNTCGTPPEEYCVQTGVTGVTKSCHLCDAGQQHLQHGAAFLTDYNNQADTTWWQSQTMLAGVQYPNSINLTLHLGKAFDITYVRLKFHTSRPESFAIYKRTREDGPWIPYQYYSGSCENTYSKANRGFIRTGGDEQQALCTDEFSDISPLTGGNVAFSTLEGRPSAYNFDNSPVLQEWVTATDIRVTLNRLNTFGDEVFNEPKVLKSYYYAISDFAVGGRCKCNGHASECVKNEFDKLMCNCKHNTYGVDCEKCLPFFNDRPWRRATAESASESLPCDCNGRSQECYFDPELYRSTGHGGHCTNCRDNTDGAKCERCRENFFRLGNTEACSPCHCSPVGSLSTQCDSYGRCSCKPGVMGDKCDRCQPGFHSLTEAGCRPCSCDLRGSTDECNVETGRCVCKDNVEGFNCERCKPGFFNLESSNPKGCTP

B1: Net4 lacking the C-terminal domain (Net4-ΔC) (domain or fragment, Mus musculus, UniProt Q9JI33 20-462, looked up)
chain: LNGVAGANSRCEKACNPRMGNLALGRKLRADTMCGQNATELFCFYSENADLTCRQPKCDKCNAAHSHLAHPPSAMADSSFRFPRTWWQSAEDVHREKIQLDLEAEFYFTHLIMVFKSPRPAAMVLDRSQDFGKTWKPYKYFATNCSATFGLEDDVVKKGAICTSRYSNPFPCTGGEVIFRALSPPYDIENPYSAKVQEQLKITNLRVRLLKRQSCPCQINDLNAKPHHFMHYAVYDFIVKGSCFCNGHADQCLPVEGFRPIKAPGAFHVVHGRCMCKHNTAGSHCQHCAPLYNDRPWEAADGRTGAPNECRTCKCNGHADTCHFDVNVWEASGNRSGGVCNNCQHNTEGQHCQRCKPGFYRDLRRPFSAPDACKACSCHPVGSAILPFSSVTFCDPSNGDCPCKPGVAGPHCDRCMVGYWGFGDYGCRPCDCAGSCDPLTGDC
notes: lacks domain C); Two alternative constructs were cloned: one with an N-terminal His8 tag, one with an N-terminal double Strep II tag (not both on one chain); the tag was removed by thrombin; also called netrin-4; wild-type Net4; source: HEK293, stably transfected, purified (streptactin-sepharose or nickel TALON beads, thrombin digestion, SEC); not shown: double Strep II, N-terminal, cleaved; …
B2: Net4-ΔC^ΔKAPGA (domain or fragment, Mus musculus, UniProt Q9JI33 20-462, looked up)
chain: LNGVAGANSRCEKACNPRMGNLALGRKLRADTMCGQNATELFCFYSENADLTCRQPKCDKCNAAHSHLAHPPSAMADSSFRFPRTWWQSAEDVHREKIQLDLEAEFYFTHLIMVFKSPRPAAMVLDRSQDFGKTWKPYKYFATNCSATFGLEDDVVKKGAICTSRYSNPFPCTGGEVIFRALSPPYDIENPYSAKVQEQLKITNLRVRLLKRQSCPCQINDLNAKPHHFMHYAVYDFIVKGSCFCNGHADQCLPVEGFRPIFHVVHGRCMCKHNTAGSHCQHCAPLYNDRPWEAADGRTGAPNECRTCKCNGHADTCHFDVNVWEASGNRSGGVCNNCQHNTEGQHCQRCKPGFYRDLRRPFSAPDACKACSCHPVGSAILPFSSVTFCDPSNGDCPCKPGVAGPHCDRCMVGYWGFGDYGCRPCDCAGSCDPLTGDC
notes: the limits of the deletion are printed for the combined mutant; probably made like its parent m1; also called Net4 mutant in which the specific loop b (KAPGA) within LE1 was deleted
B3: full-length Net4 (Net4-FL) (natural protein, Mus musculus, UniProt Q9JI33 20-628, looked up)
chain: LNGVAGANSRCEKACNPRMGNLALGRKLRADTMCGQNATELFCFYSENADLTCRQPKCDKCNAAHSHLAHPPSAMADSSFRFPRTWWQSAEDVHREKIQLDLEAEFYFTHLIMVFKSPRPAAMVLDRSQDFGKTWKPYKYFATNCSATFGLEDDVVKKGAICTSRYSNPFPCTGGEVIFRALSPPYDIENPYSAKVQEQLKITNLRVRLLKRQSCPCQINDLNAKPHHFMHYAVYDFIVKGSCFCNGHADQCLPVEGFRPIKAPGAFHVVHGRCMCKHNTAGSHCQHCAPLYNDRPWEAADGRTGAPNECRTCKCNGHADTCHFDVNVWEASGNRSGGVCNNCQHNTEGQHCQRCKPGFYRDLRRPFSAPDACKACSCHPVGSAILPFSSVTFCDPSNGDCPCKPGVAGPHCDRCMVGYWGFGDYGCRPCDCAGSCDPLTGDCISSNADVDWYHEVPAFHSMHNKSEPSWEWEDEQGFSALRHSGKCECKEQVLGNPKAFCGMKYSYVLKIKILSAHDKGSHAEVNVKIKKVLKSTKLKILRGKRTLYPESWTNRGCTCPILNPGLEYLVAGHEDVRTGKLIVNMKSFVQHWKPALGRRVMHILKRDCV
notes: also called netrin-4; wild-type Net4; source: HEK293, stably transfected, purified (streptactin-sepharose, thrombin digestion, SEC); not shown: double Strep II, N-terminal, cleaved
B4: N-terminal laminin fragment α1LN-LEa1-4 (domain or fragment, Homo sapiens, UniProt P25391 18-453, looked up)
chain: RQRGLFPAILNLASNAHISTNATCGEKGPEMFCKLVEHVPGRPVRNPQCRICDGNSANPRERHPISHAIDGTNNWWQSPSIQNGREYHWVTITLDLRQVFQVAYVIIKAANAPRPGNWILERSLDGTTFSPWQYYAVSDSECLSRYNITPRRGPPTYRADDEVICTSYYSRLVPLEHGEIHTSLINGRPSADDLSPKLLEFTSARYIRLRLQRIRTLNADLMTLSHREPKELDPIVTRRYYYSIKDISVGGMCICYGHASSCPWDETTKKLQCQCEHNTCGESCNRCCPGYHQQPWRPGTVSSGNTCEACNCHNKAKDCYYDESVAKQKKSLNTAGQFRGGGVCINCLQNTMGINCETCIDGYYRPHKVSPYEDEPCRPCNCDPVGSLSSVCIKDDLHSDLHNGKQPGQCPCKEGYTGEKCDRCQLGYKDYPTCVS
notes: also called laminin α1; source: HEK293, stably transfected, purified (streptactin-sepharose, thrombin digestion, SEC); not shown: double Strep II, N-terminal, cleaved
B5: laminin γ1 short arm fragment (γ1LN-LEa1-4) (domain or fragment, Mus musculus, UniProt P02468 34-492, looked up)
chain: T1 chain
notes: also called Lmγ1; N-terminal laminin γ1 fragment; source: HEK293, stably transfected, purified (streptactin-sepharose, thrombin digestion, SEC); not shown: double Strep II, N-terminal, cleaved

One data set deals with laminin γ1 (UniProt P02468). The conditions noted are these: cited from earlier work.
The target in data set [1] is laminin γ1 short arm fragment (γ1LN-LEa1-4) (Mus musculus) (UniProt P02468). As to the kind of experiment: not stated; binding assay of Supplementary Fig. 6c; method not given.
Data set [2] has as its target T1, laminin γ1 short arm fragment …. In words: MST.
Data set [3] deals with B5. As to the kind of experiment: rotary-shadowing electron microscopy; images of the Net4-ΔC-γ1LN-LEa1-4 complex. The following applies: both partners purified.
The target of data set [4] is B5. As to the kind of experiment: MST; 2 nM labelled γ1LN-LEa1-4; Net4 0.08-1,000 nM, Net4 mutants 0.45-4,000 nM; 50 mM Tris/HCl pH 7.4, 150 mM NaCl, 2 mM CaCl2, 3% BSA; NanoTemper Monolith NT.115. The following applies: both partners purified.
Data set [5] concerns the target B5. As to the kind of experiment: not stated; binding assays of Supplementary Fig. 6a,b; methods not shown (the author contributions name SPR measurements). The conditions noted are these: both partners purified. Background: Surface plasmon resonance follows binding to a sensor surface in real time, without labels.
Data set [6] deals with B5. As to the kind of experiment: cross-linking; increasing crosslinker concentration; Supplementary Fig. 5a. The following applies: both partners purified.
Data set [7] deals with the molecule itself. The description is as above.
Data set [8] has as its target B5. In words: SEC; analytical size-exclusion chromatography of single proteins and of mixtures. The following applies: both partners purified.
Data set [9] has as its target T2, N-terminal laminin fragment β1LN-LEa1-4 (Homo sapiens, UniProt P07942 31-509).
T2 construct: also called laminin β1; Lmβ1; source: HEK293, stably transfected, purified (streptactin-sepharose, thrombin digestion, SEC); not shown: double Strep II, N-terminal, cleaved
The description is as above. The conditions noted are these: both partners purified.

Data set [10] has as its target B3. As to the kind of experiment: MST; 2 nM labelled γ1LN-LEa1-4; Net4 0.08-1,000 nM, Net4 mutants 0.45-4,000 nM; 50 mM Tris/HCl pH 7.4, 150 mM NaCl, 2 mM CaCl2, 3% BSA; NanoTemper Monolith NT.115. The conditions noted are these: both partners purified.

T2 sequence (P07942 31-509): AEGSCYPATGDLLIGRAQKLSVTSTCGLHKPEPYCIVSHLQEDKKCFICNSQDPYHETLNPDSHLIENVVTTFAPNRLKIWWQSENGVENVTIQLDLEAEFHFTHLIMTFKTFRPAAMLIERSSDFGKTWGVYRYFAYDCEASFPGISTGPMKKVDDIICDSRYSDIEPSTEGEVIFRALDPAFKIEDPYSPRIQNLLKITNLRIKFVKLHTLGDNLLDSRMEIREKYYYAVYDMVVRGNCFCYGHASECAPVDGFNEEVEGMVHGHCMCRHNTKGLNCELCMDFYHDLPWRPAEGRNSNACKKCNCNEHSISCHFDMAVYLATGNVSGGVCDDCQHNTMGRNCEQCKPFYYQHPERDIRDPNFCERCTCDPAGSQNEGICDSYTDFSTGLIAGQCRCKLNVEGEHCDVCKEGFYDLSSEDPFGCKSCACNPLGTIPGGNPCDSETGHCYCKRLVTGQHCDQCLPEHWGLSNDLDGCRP

The Kd is a measure of binding affinity in units of concentration. Consider laminin β1 (from UniProt P02469), for which the Kd in the data set with laminin γ1 is 5 µM.
“Net4-ΔC^E195A,R199A (from UniProt Q9JI33 20-462) (domain or fragment)” yielded an equilibrium dissociation constant (Kd) in data set [1] of 66 nM.
Broadly, the stoichiometry N is a count of units in the complex or per binding partner. With B1, the Kd is 2.29 nM in data set [2] and roughly 2 nM in data set [4]. Besides, the “stoichiometry N” value in data set [3] was 1.
In [5], B2 returned a dissociation constant Kd of roughly 50 nM.
B3 yielded a Kd in [2] of 2.26 nM. Also, the “stoichiometry N” value in data set [6] was 1; in data set [7] it was 2.
In the case of B4, in data set [8], the binding result is recorded as “binds”.
B5: in [9], the binding result is reported as “binds”. The same molecule returned a Kd in data set [10] of roughly 2 nM.

(Values after publication PMC5141367, “Structural decoding of netrin-4 reveals a regulatory function towards mature basement membranes” (Nature Communications, 2016).)
